Columns and labels:
[1] = target: TDG G199S G199S (human (rs4135113 variant)) (UniProt Q13569); assay: EMSA; settings: tetrahydrofuran abasic analog (X, written N) at position 17 of strand 2, opposite A12 of strand 1; 20 mM HEPES pH 7.3, 1 mM EDTA, 10 mM (NH4)2SO4, 1 mM DTT, 0.2% Tween-20, 30 mM KCl; 2 nM DNA, 30 min at room temperature; 6% native PAGE at 4 C
TDG WT (human) = TDG WT (human) (UniProt Q13569); assay: EMSA; settings: tetrahydrofuran abasic analog (X, written N) at position 17 of strand 2, opposite A12 of strand 1; 20 mM HEPES pH 7.3, 1 mM EDTA, 10 mM (NH4)2SO4, 1 mM DTT, 0.2% Tween-20, 30 mM KCl; 2 nM DNA, 30 min at room temperature; 6% native PAGE at 4 C
Sequence of TDG WT (human) (Q13569 whole entry): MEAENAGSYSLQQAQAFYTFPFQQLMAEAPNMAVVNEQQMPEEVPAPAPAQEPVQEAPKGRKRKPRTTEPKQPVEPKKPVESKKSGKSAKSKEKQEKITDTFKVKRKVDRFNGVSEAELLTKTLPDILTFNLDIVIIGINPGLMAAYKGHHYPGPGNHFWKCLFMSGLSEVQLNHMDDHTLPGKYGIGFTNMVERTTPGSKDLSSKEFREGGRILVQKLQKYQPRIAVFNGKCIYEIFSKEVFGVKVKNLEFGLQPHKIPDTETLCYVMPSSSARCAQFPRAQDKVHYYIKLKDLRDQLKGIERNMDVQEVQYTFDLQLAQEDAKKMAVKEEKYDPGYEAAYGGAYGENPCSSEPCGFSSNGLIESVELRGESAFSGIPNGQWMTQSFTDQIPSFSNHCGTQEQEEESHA

Sequence of TDG G199S G199S (human (rs4135113 variant)) (Q13569 whole entry G199S): as the sequence (Q13569 whole entry) above, with G199S counted along it

CAGCTCTGTACATGAGCAGTGGTGACAC / GTGTCACCACTGCTCANGTACAGAGCTG [28-mer THF:A]
Kd [1]: 0.035 µM
Kd (TDG WT (human)): 0.153 µM
